Test [1] has as its target T1, CD9-ECL2(CD9 extracellular domain 2)-Fc antigen (human).
T1 construct: also called CD9-ECL2-Fc; CD9-EC2-Fc
Nature of the test: phage ELISA. Here is the method: (§1) A 96-well immuno-plate was coated with CD9-EC2-Fc antigen (0.1 μg/well) at 4° C. for 16 hours, followed by blocking with skim milk dissolved in PBS (4%). Each well of the 96-well immuno-plate was washed with 0.2 ml of PBS-tween20 (0.05%). 100 ul of the 3rd-4th panning monoclonal scFV-phage was added to each well, followed by reaction at room temperature for 2 hours. Each well was washed four times with 0.2 ml of PBS-tween20 (0.05%). The secondary antibody anti-M13-HRP was diluted at 1:2000, followed by reaction at room temperature for 1 hour. The plate was washed with 0.2 ml of PBS-tween20 (0.05%), followed by color development. OD₄₉₀ was measured.
Target sequence in this assay (chain, as listed by the source limits assumed): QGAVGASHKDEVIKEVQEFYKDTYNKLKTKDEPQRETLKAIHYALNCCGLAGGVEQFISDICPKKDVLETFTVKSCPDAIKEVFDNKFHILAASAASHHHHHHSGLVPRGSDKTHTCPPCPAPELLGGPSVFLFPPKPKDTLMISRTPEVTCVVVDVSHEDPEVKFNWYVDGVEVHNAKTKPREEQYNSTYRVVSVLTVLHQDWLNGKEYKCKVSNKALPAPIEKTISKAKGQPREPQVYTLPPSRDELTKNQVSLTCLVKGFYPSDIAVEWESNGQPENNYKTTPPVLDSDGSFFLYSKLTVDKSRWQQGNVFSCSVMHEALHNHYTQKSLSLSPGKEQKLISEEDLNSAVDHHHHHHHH
For orientation: An ELISA detects its analyte on a solid surface through an enzyme-linked reagent.

Another test concerns the target T2, Fc.
T2 construct: Control antigen of the phage ELISA
Nature of the test: phage ELISA. Here is the method: as §1

For test [2], the target named is T1, CD9-ECL2(CD9 extracellular domain 2)-Fc …. Nature of the test: phage ELISA; CD9 OD/a-myc OD. Here is the method:
as §1
Target sequence in this assay (chain, as listed by the source limits assumed): as above

The target is the same in test [3]. Description: phage ELISA; CD9 OD/a-myc OD (repeats Table 3). Here is the method: as §1
Target sequence in this assay (chain, as listed by the source limits assumed): as above
Test [4] shares this target. Nature of the test: phage ELISA; CD9 OD/a-myc OD. This is another data set of the same source.
The target is the same in test [5]. Description: phage ELISA; CD9 OD/a-myc OD (repeats Table 2).
The target of another test is T3, CD9-ECL2 mutant M4 (human, with rat residues, UniProt P21926 112-195).
T3 construct: also called mutation 4; not shown: Myc and 8x His tag of the pYK His only vector
T3 chain: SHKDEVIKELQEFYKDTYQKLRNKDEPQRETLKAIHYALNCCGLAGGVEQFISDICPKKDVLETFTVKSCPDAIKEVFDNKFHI
Nature of the test: ELISA: antibody coated, supernatant, anti-His-HRP. Here is the method:
(§2) Each supernatant was loaded by 24 ul at 100 V for 2 hours, and then transferred to NC membrane (Millipore Cat. No. HATF00010) at 85V for 2 hours. The membrane finished with transfer was blocked by using blocking buffer (4% skim milk in TEST) at room temperature for 1 hour. A-His-HRP (Sigma, Cat. No. A7058) was diluted with blocking buffer (4% skim milk in TBST) at 1:4000 and binding was induced at room temperature for 1 hour. The membrane was washed with TBST 5 times every 10 minutes, followed by development (Intron, Cat. No. 12145). Expression of each mutant was confirmed by Western blotting (FIG. 15). Based on that, epitopes of ALB6 and 10E4 were confirmed by ELISA. A 96-well immuno-plate (NUNC) was coated with coating buffer comprising ALB6 and 10E4 (100 ng/100 ul/well each) at 4° C. for 16 hours, followed by blocking with 4% PBST (skim milk dissolved in 1× PBS) for 2 hours. Each well of the 96-well immuno-plate was washed three times with 0.2 ml of PBST (PBS-tween20 (0.05%)). From the supernatants obtained on day 5 confirmed to contain a large number of mutants confirmed by Western blotting, wild type, M1 and M4 supernatants were selected. 100 ul of the selected supernatant was added to each well of the plate, followed by reaction for 2 hours. The plate was washed again. The secondary antibody anti-His-HRP (Sigma A7058) was diluted at 1:1000, followed by reaction at room temperature for 30 minutes. Washing was performed three times by the same manner as described above. OPD tablet (Sigma 8787-TAB) was added to PC buffer [C₆H₈O₇H₂O (Sigma, C0706) 5.1 g, Na₂HPO₄ (Sigma, 57907 7.3 g)] to make substrate solution, which was added to each well by 100 ul/well, followed by color development for 10 minutes. Color development was terminated by adding 2 M H₂SO₄ solution. Then, OD₄₉₀ was measured by using ELISA reader (Molecular Device).

Test [6] has as its target T4, p-Myc-His CD9-ECL2 wild type (human).
T4 chain: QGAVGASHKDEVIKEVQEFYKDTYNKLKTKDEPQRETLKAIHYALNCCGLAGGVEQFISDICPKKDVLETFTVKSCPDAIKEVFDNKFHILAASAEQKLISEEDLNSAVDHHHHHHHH
Nature of the test: ELISA: antibody coated, supernatant, anti-His-HRP. Here is the method: as §2

In the next test the target is T5, CD9-ECL2 mutant M1 (human, with rat residues, UniProt P21926 112-195).
T5 construct: also called mutation 1; not shown: Myc and 8x His tag of the pYK His only vector
T5 chain: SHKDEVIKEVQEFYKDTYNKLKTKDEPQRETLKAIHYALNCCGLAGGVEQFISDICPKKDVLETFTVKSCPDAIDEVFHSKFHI
Description: ELISA: antibody coated, supernatant, anti-His-HRP. Here is the method: as §2

B1: CD9 8A scFv monoclonal phage antibody (scFv, V domains shown)
VH: QVQLVQSGAEVKKPGASVKLSCKASGYTFSSYWMHWVRQAPGQRLEWMGEINPGNGHTNYNEKFKSRVTITVGKSASTAYMELSSLRSEDTAVYYCAREGVSAAGGLDHWGQGTQITVSS
VL: DIQMTQSPSSLSVSTGARVTITCRASQGISNYLAWYQQKPGKAPKLLIYAASTLQSGVPSRFSGSGSGTDFTLTISSLQPEDFATYYCQQLNSYPLTFGGGTKVEIK
notes: also called 8A3
Turning to B1, the OD490 in test [1] worked out at 1.61; with Fc, 0.088. Moreover, the Ratio in [2] and in test [3] was 0.73 in each case.

B2: CD9 12F scFv monoclonal phage antibody (scFv, V domains shown)
VH: QVQLVQSGAEVKKPGASVKLSCKASGYTFSSYWMHWVRQAPGQRLEWMGEINPGNGHTNYNEKFKSRVTITVDKSASTAYMELSSLRSEDTAVYYCARELEEGAFDIWGQGTMVTVSS
VL: DIQMTQSPSSLPASVGDRVTITCRASQGISSYLAWYQQKPGKAPKLLIYAASTLQSGVPSRFSGSGSGTDFTLTISSLQPEDFATYYCQQYDSVPLTFGGGTKVEIK
notes: also called 12F3
Turning to B2, the OD490 in [1] worked out at 1.16; with Fc, 0.124. The Ratio is 0.669 in test [2] and 0.668 in test [3].

B3: CD9 3F3 scFv monoclonal phage antibody (scFv, V domains shown, not shown: small tags and cut ends)
VH: QMQLVQSGAEVKKPGASVKLSCKASGYTFSSYWMHWVRQAPGQRLEWMGEINPGNGHTNYNEKFKSRVTITVDKSASTAYMELSSLRSEDTAVYYCGQDNSPPRIWGQGTLITVSS
VL: QSALTQPASVSGSPGQSITISCTGTSSDVGGYNHVSWYQQHPGKAPKLLIYDVSNRPSGVSGRFSGSKSGNTASLTISGLQAEDEANYYCGSYTSSSTFEVFGTGTKVTVL
On to B3, for which the OD490 in test [1] was 0.961; with Fc it was 0.0394. The Ratio in test [2] and in test [3] was 0.918 each time.

B4: CD9 11G scFv monoclonal phage antibody (scFv, V domains shown)
VH: QVQLVQSGAEVKKPGASVKLSCKASGYTSSSYWMHWVRQAPGQRLEWMGEINPGNGHTNYNEKFKSRVTITVDKSASTAYMELSSLRSEDTAVYYCGQDNSPPRIWGQGTLVTVSS
VL: DIQMTQSPSTLSASVGDRVTITCRASQTIGNLAWFQQKPGKAPKLLIYKASSLESGVPSRFSGSGSGTEFTLTISSLQPDDFATYYCQQYSDYWTFGQGTKVEIK
notes: also called 11G3
B4: the results for the OD490 (in test [1]; in the test with Fc) were 2.24 and 0.0441, respectively. The Ratio in [2] and in [3] was 1.23 in each case.

B5: CD9 5G4 scFv monoclonal phage antibody (scFv, V domains shown)
VH: QVQLVSSGAEVKKPGASVKLSCKASGYTFSSYWMHWVRQAPGQRLEWMGEINPGNGHTNYNEKFKSRVTITVDKSASTAYMELSSLRSEDTAVYYCAREDDIEDAFDFWGQGTMVTVSS
VL: DIQMTQSPSSVSASVGDRVTITCRASQSISSWLAWYQQKPGKAPKLLIYGASNLQSGVPSRFSGSGSGTDFTLTISSLHPEDFATYFCHKTDSFPLTFGGGTKVEIK
As for B5, the Ratio in test [4] and in test [5] was 1.04 throughout.

B6: 10E4 whole IgG (antibody, V domains shown)
VH: MAQVQLVQSGGGLVQPGRSLRLSCAASGFTFDDFAMHWVRQAPGKGLEWVAGISWNSGDIRYADSVRGRFTISRDNAKNSLFLQMNSLRAEDTAVYYCARSPVGTTYFDYWGQGALITVSS
VL: DIQMTQSPSSLSASVGDRVTITCRASQGISSYLAWYQQKPGKAPKLLIYAASTLQSEVPSRFSGSGSGTDFTLTISSLQPEDFATYYCQQLNIFPLTFGGTKVDIKR
notes: Whole IgG made from the 10E4 phage clone in pNATAB H and pNATAB L vectors; the heavy chain PCR primer starts at QVQLVQS; also called 10E4 human antibody; anti-CD9(10E4) IgG
For the molecule B6, the OD490 came to 0.398 with CD9-ECL2 mutant M4, 0.375 in test [6] and 0.084 with CD9-ECL2 mutant M1.

Source of the values: patent US20110195027A1 (KOREA RESEARCH INSTITUTE OF BIOSCIENCE AND BIOTECHNOLOGY, published 2011).
